From PMC5281607

Experiment: whole-cell patch clamp, AITC amplitude and rectification
Conditions: glycan lost; control: vehicle-treated (untreated) cells

B1: TRPA1: tunicamycin 5 μg/ml, 24 h (protein)
parent chain: MKRSLRKMWRPGEKKEPQGVVYEDVPDDTEDFKESLKVVFEGSAYGLQNFNKQKKLKRCDDMDTFFLHYAAAEGQIELMEKITRDSSLEVLHEMDDYGNTPLHCAVEKNQIESVKFLLSRGANPNLRNFNMMAPLHIAVQGMNNEVMKVLLEHRTIDVNLEGENGNTAVIIACTTNNSEALQILLKKGAKPCKSNKWGCFPIHQAAFSGSKECMEIILRFGEEHGYSRQLHINFMNNGKATPLHLAVQNGDLEMIKMCLDNGAQIDPVEKGRCTAIHFAATQGATEIVKLMISSYSGSVDIVNTTDGCHETMLHRASLFDHHELADYLISVGADINKIDSEGRSPLILATASASWNIVNLLLSKGAQVDIKDNFGRNFLHLTVQQPYGLKNLRPEFMQMQQIKELVMDEDNDGCTPLHYACRQGGPGSVNNLLGFNVSIHSKSKDKKSPLHFAASYGRINTCQRLLQDISDTRLLNEGDLHGMTPLHLAAKNGHDKVVQLLLKKGALFLSDHNGWTALHHASMGGYTQTMKVILDTNLKCTDRLDEDGNTALHFAAREGHAKAVALLLSHNADIVLNKQQASFLHLALHNKRKEVVLTIIRSKRWDECLKIFSHNSPGNKCPITEMIEYLPECMKVLLDFCMLHSTEDKSCRDYYIEYNFKYLQCPLEFTKKTPTQDVIYEPLTALNAMVQNNRIELLNHPVCKEYLLMKWLAYGFRAHMMNLGSYCLGLIPMTILVVNIKPGMAFNSTGIINETSDHSEILDTTNSYLIKTCMILVFLSSIFGYCKEAGQIFQQKRNYFMDISNVLEWIIYTTGIIFVLPLFVEIPAHLQWQCGAIAVYFYWMNFLLYLQRFENCGIFIVMLEVILKTLLRSTVVFIFLLLAFGLSFYILLNLQDPFSSPLLSIIQTFSMMLGDINYRESFLEPYLRNELAHPVLSFAQLVSFTIFVPIVLMNLLIGLAVGDIAEVQKHASLKRIAMQVELHTSLEKKLPLWFLRKVDQKSTIVYPNKPRSGGMLFHIFCFLFCTGEIRQEIPNADKSLEMEILKQKYRLKDLTFLLEKQHELIKLIIQKMEIISETEDDDSHCSFQDRFKKEQMEQRNSRWNTVLRAVKAKTHHLEP
other: channel current: no change
